System: fibrinolysis system of the blood
Experiment: complex permittivity at 10 MHz of blood samples with fibrinolysis system promotor (tPA) and inhibitor (aprotinin)
Settings: blood sample of tPA=8 and aprotinin=0, FIG. 9
Procedure: In addition, for example, in the case where the fibrinolysis system is evaluated, examples of coagulation factors to be evaluated include plasminogen and plasmin. In that case, as a drug to be added to the blood sample, an activator or inhibitor of plasminogen or plasmin is usable. FIG. 9 is a diagram showing time-dependent changes in the real part (∈′) of the complex permittivity at 10 MHz of blood samples having different fibrinolysis system promotor (tPA) and fibrinolysis system inhibitor (aprotinin) concentrations.
For the evaluation of the fibrinolysis-system blood, for example, a value obtained by dividing the amplitude after 30 minutes from the time B shown in FIGS. 2A-2B by the amplitude at the time B (LI30: the source of clot firmness after a predetermined period of time from the maximum firmness accompanying fibrinolysis) can be used as an evaluation parameter.

B1: tPA: fibrinolysis system promotor (protein, UniProt P00750 36-562, looked up)
Tissue-type plasminogen …: SYQVICRDEKTQMIYQQHQSWLRPVLRSNRVEYCWCNSGRAQCHSVPVKSCSEPRCFNGGTCQQALYFSDFVCQCPEGFAGKCCEIDTRATCYEDQGISYRGTWSTAESGAECTNWNSSALAQKPYSGRRPDAIRLGLGNHNYCRNPDRDSKPWCYVFKAGKYSSEFCSTPACSEGNSDCYFGNGSAYRGTHSLTESGASCLPWNSMILIGKVYTAQNPSAQALGLGKHNYCRNPDGDAKPWCHVLKNRRLTWEYCDVPSCSTCGLRQYSQPQFRIKGGLFADIASHPWQAAIFAKHRRSPGERFLCGGILISSCWILSAAHCFQERFPPHHLTVILGRTYRVVPGEEEQKFEVEKYIVHKEFDDDTYDNDIALLQLKSDSSRCAQESSVVRTVCLPPADLQLPDWTECELSGYGKHEALSPFYSERLKEAHVRLYPSSRCTSQHLLNRTVTDNMLCAGDTRSGGPQANLHDACQGDSGGPLVCLNDGRMTLVGIISWGLGCGQKDVPGVYTKVTNYLDWIRDNMRP
- characteristics of time-dependent change of ∈′ at 10 MHz: exhibits similar characteristics to the blood of a patient with the fibrinolysis system promoted

Source: patent US20170030891A1, “BLOOD CONDITION ANALYSIS DEVICE, BLOOD CONDITION ANALYSIS SYSTEM, BLOOD CONDITION ANALYSIS METHOD, AND PROGRAM” (SONY CORPORATION, priority 2014, published 2017)
